Experimental findings from patent US20100233157A1 (published 2010) are described below.

In one experiment the target is T1, JPT31 peptide (human).
T1 construct: Peptide of the human Fas peptide scan, immobilized on a glass microarray (JPT peptide technologies)
T1 peptide: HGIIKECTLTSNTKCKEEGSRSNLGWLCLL
As to the kind of experiment: peptide microarray (JPT), 50 ug/ml antibody. How it is done: (§1) Epitope mapping of F45D9-γ1 and F45D9-γ4 mAb was done using peptide microarrays from JPT peptide technologies. The microarray is composed of several different peptide scans of TNR6_Human protein (FAS molecule, accession number P25445; Oehm A. et al. J. Biol. Chem. 267:10709, 1992), immobilized on a glass surface. The microarrays were pre-treated 2 h at room temperature with blocking buffer (Pierce, Superblock), followed by washings with TBS buffer, pH 8.0 and water (3 times each). Pre-treated arrays were scanned using Axon-4000B-Microarray Scanner for background control. […] Control incubation with secondary antibody only was performed in parallel. All microarrays were scanned using Axon-4000B-Microarray Scanner with appropriate wavelength settings. SPOT recognition software package ArrayPro was used for data analysis. Mean of signal intensities from 3 identical subarrays on each microarray image were used for data evaluation.

Another experiment deals with T2, JPT32 peptide (human).
T2 construct: Peptide of the human Fas peptide scan, immobilized on a glass microarray (JPT peptide technologies)
T2 peptide: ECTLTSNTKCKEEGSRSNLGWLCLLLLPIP
Nature of the experiment: peptide microarray (JPT), 50 ug/ml antibody. How it is done:
as §1

The next experiment deals with T3, JPT33 peptide (human).
T3 construct: Peptide of the human Fas peptide scan, immobilized on a glass microarray (JPT peptide technologies)
T3 peptide: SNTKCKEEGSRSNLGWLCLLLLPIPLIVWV
As to the kind of experiment: peptide microarray (JPT), 50 ug/ml antibody. How it is done:
as §1

The target in experiment [1] is T4, Mouse Fas on the cell surface (mouse, UniProt P25446 22-327).
T4 construct: whole, on cells; also called Fas on peripheral blood lymphocytes of BALB/c mice
T4 sequence (looked up): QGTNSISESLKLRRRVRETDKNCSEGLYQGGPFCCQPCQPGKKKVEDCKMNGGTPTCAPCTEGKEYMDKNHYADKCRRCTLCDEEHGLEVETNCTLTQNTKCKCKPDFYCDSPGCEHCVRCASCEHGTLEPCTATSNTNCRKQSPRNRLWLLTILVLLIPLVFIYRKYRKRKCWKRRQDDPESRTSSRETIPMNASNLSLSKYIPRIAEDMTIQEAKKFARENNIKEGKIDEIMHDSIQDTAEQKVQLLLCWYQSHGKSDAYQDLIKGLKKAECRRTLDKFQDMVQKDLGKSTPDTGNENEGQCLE
Nature of the experiment: flow cytometry histograms (FL1-H) on mouse PBL, FITC anti-human kappa secondary. From the text:
(§2) Reactivity of F45D9-γ1 or F45D9-γ4 mAb with Fas molecules of various species was initially screened using primary blood cells or lymphocytes cell lines. The binding of F45D9-γ1 or F45D9-γ4 mAb was explored by immunofluoresce staining and flow cytometry analysis, in human PBMC, purified human resting T cells, activated human T cells, peripheral blood lymphocytes (PBL) derived from BALE/c mice, rat, dog and pig, and in B cell lines or PBL derived from common marmoset, cynomolgus macaque, olive baboon, rhesus macaque and chimpanzee. Resting and activated human T cells were prepared as described in Example 7. B cells lines from monkeys were obtained from Biomedical Primate Research Center (Rijswijk, The Netherlands), and were cultured in RPMI 1640 medium supplemented with 2 mM glutamax, 100 UI/mL penicillin, 100 μg/mL streptomycin and 10% fetal bovine serum, at 37° C. and 5% CO₂. After washing in PBS cells (0.2−0.4×10⁶ cells/well) were incubated in staining buffer (PBS/1% FBS) containing F45D9-γ1 or human IgG control antibodies (10-20 ug/ml) in a 96-well U-bottom plate for 30 min on ice, in a 100 ul/well volume. Cells were then washed once with staining buffer, and further incubated for 30 min on ice with 1:30 dilution of FITC-conjugated rabbit F(ab′)₂ anti-human kappa (DakoCytomation Cat. F0434) or FITC-conjugated rabbit F(ab′)₂ anti-human IgG (DakoCytomation Cat. F0056). […]

Experiment [2] deals with T5, Cynomolgus macaque Fas on the cell surface (cynomolgus macaque, UniProt Q9TSN4 26-331).
T5 construct: whole, on cells; also called Fas on cynomolgus macaque B cell line and PBL
T5 sequence (looked up): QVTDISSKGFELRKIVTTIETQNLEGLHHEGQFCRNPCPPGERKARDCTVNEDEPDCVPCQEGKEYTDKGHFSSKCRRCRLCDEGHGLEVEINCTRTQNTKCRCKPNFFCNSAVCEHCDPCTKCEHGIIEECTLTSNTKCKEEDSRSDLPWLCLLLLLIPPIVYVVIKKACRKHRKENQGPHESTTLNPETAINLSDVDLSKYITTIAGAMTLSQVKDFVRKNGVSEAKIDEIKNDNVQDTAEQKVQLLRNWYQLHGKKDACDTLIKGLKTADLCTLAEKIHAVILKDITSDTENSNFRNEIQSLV
Nature of the experiment: flow cytometry histograms (FL1-H) on cynomolgus macaque cells (cell type not printed on the sheet), FITC anti-human kappa or FITC anti-human IgG secondary.
Description: as §2

B1: F45D9-γ1 mAb (recombinant human mAb T17/B2-1G4, gamma-1 isotype) (antibody, V domains shown)
VH: QVQLQQWGAGLLKPSETLSLICAVYGGSFSTYYWTWIRQPPGKGLEWIGEINHRGTTNYSPSLKSRVTISVDTSKNHISLNLTSVTAADTALYYCARGLLWIGEGDYGLDVWGQGTTVTVSS
VL: DIQMTQSPSSLSASVGDRVTITCRASQGIRRWLAWYQQKPEKAPKSLIYAASSLQSGVPSRFSGSGSGTDFTLTISSLQPEDFATYYCQQYNSYPYTFGQGTKLEIKR
notes: Whole human IgG1 (γ1fa allotype) with human kappa light chain, made in CHO DG44 cells; also called IgG1; T17/L18/B2-1G4
Consider B1, for which the binding result is listed as “binds” with JPT31 peptide; “binds” with JPT32 peptide; “binds” in the experiment with JPT33 peptide; “no binding” in experiment [1]; “no binding” in experiment [2].
